Source: patent publication US20220306746A1 (CHINA MEDICAL UNIVERSITY HOSPITAL, published 2022)
Residue numbers refer to the chain shown, from its start.

B1: anti-PD-L1 nanobody clone #1 (VHH)
VHH: HVQLVESGGGLVQPGGSLRISCAASGFTFSSRAMSWVRQAPGKGLEWVSTINSDGSNTYYSDSVKDRFTISRDNAINTLYLQLNSLKTEDTAMYYCSRCPDIYCGGQYTYRGQGTQVTVSS
notes: Labelled with FITC for flow cytometry; also called PD-L1 nb
B2: anti-PD-L1 nanobody clone #67 (VHH)
VHH: B1 VHH with H1Q, I51V

What was measured:
[1] = molecular target: T1, programmed cell death ligand 1 (PD-L1) on cells (UniProt Q9NZQ7 19-290, limits assumed); experiment: flow cytometry on H1975 cells, FITC-labelled nanobody 1 ng/ml [b]
T1 construct: whole, on cells; H1975, A549 and MDA-MB-231 are human tumour cell lines; also called PD-L1 aAPC/CHO-K1 cells
T1 sequence (Q9NZQ7 19-290 limits assumed): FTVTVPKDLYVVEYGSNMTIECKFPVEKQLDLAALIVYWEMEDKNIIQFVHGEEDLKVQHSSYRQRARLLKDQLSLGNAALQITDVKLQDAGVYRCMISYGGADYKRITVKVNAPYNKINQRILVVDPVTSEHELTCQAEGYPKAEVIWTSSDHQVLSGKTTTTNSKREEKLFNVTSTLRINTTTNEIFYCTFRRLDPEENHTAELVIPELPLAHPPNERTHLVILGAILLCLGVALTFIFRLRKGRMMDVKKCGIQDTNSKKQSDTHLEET
Experimental: In this example, the procedures of flow cytometric analysis of the anti-PD-L1 nanobody are as follows. The anti-PD-L1 nanobody (1 ng/ml) was pre-stained with FITC fluorescein by Fastlink Fluorescein Labeling Kit (Abnova), the procedures were performed according to the manual instructions. […] After washing with PBS, the cells were analyzed by flow cytometry using FL1 channel.

[2] = molecular target: T1, programmed cell death ligand 1 (PD-L1) …; experiment: cell-based or functional assay

Binder	binding result [1]	EC50 (read off the curve) [2] [µg/mL]
B1	binds	–
B2	–	~3
